Measured values as given in US20200199241A1 (Chugai, published 2020).
Changes are numbered by the printed parent chain. Names may count otherwise. Where two headings read alike, the source gives them in different places. Each block holds one binder with its values, some of them ahead of it.

Legend:
[1] = target: T1, mouse FcγRI (mouse, UniProt P26151 25-297); assay: SPR, antibody captured by Protein L, mouse FcγR as analyte, pH 7.4, 25 C
T1 construct: bought; also called mFcgRI; mFcgR 1
T1 sequence (looked up): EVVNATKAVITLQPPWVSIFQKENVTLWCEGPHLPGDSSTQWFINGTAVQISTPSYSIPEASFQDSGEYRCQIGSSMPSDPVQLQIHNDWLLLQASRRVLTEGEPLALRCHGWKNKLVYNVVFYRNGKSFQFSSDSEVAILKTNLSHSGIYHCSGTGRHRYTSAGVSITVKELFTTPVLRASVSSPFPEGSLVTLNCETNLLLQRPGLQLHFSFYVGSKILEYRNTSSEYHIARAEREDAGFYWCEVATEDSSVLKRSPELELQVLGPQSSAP

[2] = target: T2, mouse FcγRIIb (mouse, UniProt P08101 30-207, limits assumed); assay: as above
T2 construct: bought; also called mFcgRIIb; mFcgR IIb
T2 sequence (looked up): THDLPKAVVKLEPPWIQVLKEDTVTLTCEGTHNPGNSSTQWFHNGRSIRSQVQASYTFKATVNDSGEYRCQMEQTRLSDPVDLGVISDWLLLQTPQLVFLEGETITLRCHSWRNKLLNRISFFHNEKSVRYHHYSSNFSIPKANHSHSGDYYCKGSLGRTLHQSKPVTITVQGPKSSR

[3] = target: T3, mouse FcγRIII (mouse, UniProt P08508 31-215); assay: as above
T3 construct: bought; also called mFcgRIII; mFcgR III
T3 sequence (looked up): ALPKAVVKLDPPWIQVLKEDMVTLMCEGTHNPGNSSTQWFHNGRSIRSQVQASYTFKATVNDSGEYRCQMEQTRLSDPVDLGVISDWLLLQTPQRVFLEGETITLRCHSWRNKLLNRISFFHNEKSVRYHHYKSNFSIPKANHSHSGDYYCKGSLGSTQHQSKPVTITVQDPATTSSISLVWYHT

[4] = target: T4, mouse FcγRIV (mouse, UniProt A0A0B4J1G0 21-203); assay: as above
T4 construct: bought; also called mFcgRIV; mFcgR IV; the vendor's purification tag not given
T4 sequence: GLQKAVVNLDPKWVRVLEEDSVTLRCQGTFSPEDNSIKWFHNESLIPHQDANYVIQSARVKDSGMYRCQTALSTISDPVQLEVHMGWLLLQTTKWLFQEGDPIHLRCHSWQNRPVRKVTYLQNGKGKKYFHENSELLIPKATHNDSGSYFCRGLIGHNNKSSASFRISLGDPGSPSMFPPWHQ

[5] = target: T5, human FcRn (soluble human FcRn complexed with β2-microglobulin) (human, UniProt P61769 21-119, limits assumed); assay: SPR, antibody captured by Protein L, human FcRn as analyte, pH 7.0, 25 C
T5 construct: also called hFcRn

[6] = target: T1, mouse FcγRI; assay: SPR, antibody captured by Protein L, mouse FcγR as analyte, pH 7.4, 25 C; remark: listed apart in the source
[7] = target: T2, mouse FcγRIIb; assay: as above; remark: listed apart in the source
[8] = target: T3, mouse FcγRIII; assay: as above; remark: listed apart in the source
[9] = target: T4, mouse FcγRIV; assay: as above; remark: listed apart in the source
[10] = target: T5, human FcRn (soluble human FcRn …); assay: SPR, antibody captured by Protein L, human FcRn as analyte, pH 7.0, 25 C; remark: listed apart in the source
[11] = target: T6, human FcγRIIb (human, UniProt P31994 43-217, limits assumed); assay: SPR, antibody captured by Protein L, human FcγR as analyte, pH 7.4, 25 C;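 note: biacore T100 or T200 with Protein L amine-coupled on a CM4 chip, FcγRs diluted in ACES saline with polysorbate 20, buffer-only injection as blank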
T6 construct: also called hFcgRIIb; FcγIIB
T6 sequence: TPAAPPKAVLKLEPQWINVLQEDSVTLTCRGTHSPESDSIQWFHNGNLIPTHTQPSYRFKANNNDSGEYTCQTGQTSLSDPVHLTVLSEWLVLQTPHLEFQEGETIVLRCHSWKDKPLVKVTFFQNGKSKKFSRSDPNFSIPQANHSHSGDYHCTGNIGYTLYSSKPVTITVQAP

[12] = target: T7, human FcγRIIIa(V) (human, UniProt P08637 17-208, limits assumed); assay: as above
T7 construct: also called hFcgRIIIa(V); allotype V158
T7 sequence (P08637 other isoform, or with tags, fused parts or gaps limits assumed): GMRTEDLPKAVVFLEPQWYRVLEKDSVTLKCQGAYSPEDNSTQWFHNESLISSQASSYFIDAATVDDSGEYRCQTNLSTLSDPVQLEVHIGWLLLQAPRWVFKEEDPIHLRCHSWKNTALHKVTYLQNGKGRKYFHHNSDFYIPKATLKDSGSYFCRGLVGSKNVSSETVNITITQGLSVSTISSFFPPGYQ

[13] = target: T8, human FcγRIa (human, UniProt P12314 16-292, limits assumed); assay: as above
T8 construct: also called hFcgRIa; hFcgRI
T8 sequence (P12314 16-292 limits assumed): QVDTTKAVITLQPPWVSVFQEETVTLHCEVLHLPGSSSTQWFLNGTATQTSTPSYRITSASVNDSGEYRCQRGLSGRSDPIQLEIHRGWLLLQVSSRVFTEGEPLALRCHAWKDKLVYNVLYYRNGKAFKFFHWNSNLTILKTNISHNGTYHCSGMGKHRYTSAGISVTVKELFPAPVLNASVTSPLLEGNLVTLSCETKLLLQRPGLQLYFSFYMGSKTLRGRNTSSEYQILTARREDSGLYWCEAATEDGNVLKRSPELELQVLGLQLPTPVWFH

[14] = target: T9, human FcγRIIa(R) (human, UniProt P12318 36-217); assay: as above
T9 construct: also called hFcgRIIa(R); FcγRIIa type R
T9 chain: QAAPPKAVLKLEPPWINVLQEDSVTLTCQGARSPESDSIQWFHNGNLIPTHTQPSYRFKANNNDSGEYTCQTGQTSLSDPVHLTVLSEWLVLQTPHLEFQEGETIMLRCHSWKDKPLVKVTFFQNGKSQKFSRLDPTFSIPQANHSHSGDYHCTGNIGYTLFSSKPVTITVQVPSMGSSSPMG

[15] = target: T10, human FcγRIIa(H) (human, UniProt P12318 36-217); assay: as above
T10 construct: also called hFcgRIIa(H); FcγRIIa type H
T10 sequence: T9 chain with R133H

BINDING AMOUNT (RU) [1]: -3.1 RU
BINDING AMOUNT (RU) [2]: -3 RU
BINDING AMOUNT (RU) [3]: -8.4 RU
BINDING AMOUNT (RU) [4]: -3.8 RU
B3: antibody with mPM1H-mIgG1-mF39 heavy chain (antibody)
heavy: DVQLQESGPVLVKPSQSLSLTCTVTGYSITSDHAWSWIRQFPGNKLEWMGYISYSGITTYNPSLKSRISITRDTSKNQFFLQLNSVTTGDTSTYYCARSLARTTAMDYWGQGTSVTVSSAKTTPPSVYPLAPGSAAQTNSMVTLGCLVKGYFPEPVTVTWNSGSLSSGVHTFPAVLQSDLYTLSSSVTVPSSTWPSETVTCNVAHPASSTKVDKKIVPRDCGCKPCICTVKEVSKVFIFPPKPKDVLYITLEPKVTCVVVDISKDDPEVQFSWFVDDVEVHTAQTQPREEQFNSTFRSVSELPIMHQDWLNGKEFKCRVNSAAFPAPIEKTISKTKGRPKAPQVYTIPPPKEQMAKDKVSLTCMITDFFPEDITVEWQWNGQPAENYKNTQPIMDTDGSYFVYSKLNVQKSNWEAGNTFTCSVLHEGLKNHHTEKSLSHSPGK
light: not shown
notes: P235K/S239K/T252Y/T256E/H433K; also called mPM1-mIgG1-mF39; copies: 2 + 2

BINDING AMOUNT (RU) [1]: -3 RU
BINDING AMOUNT (RU) [2]: -5.2 RU
BINDING AMOUNT (RU) [3]: -18.7 RU
BINDING AMOUNT (RU) [4]: -8.9 RU
B5: antibody with mPM1H-mIgG1-mF40 heavy chain (antibody)
heavy: B3 heavy with K429H, N430W
light: not shown
notes: P235K/S239K/T252Y/T256E/N434W; also called mPM1-mIgG1-mF40; copies: 2 + 2

Further lines, the binder ahead of its results:

B1: antibody with mPM1H-mIgG1 heavy chain and L(WT)-CK light chain (antibody)
heavy: B3 heavy with K231P, K235S, Y248T, E252T, K429H
light: not shown
notes: mouse IgG1 heavy chain with natural mouse Fc region; also called mPM1-mIgG1; copies: 2 + 2
BINDING AMOUNT (RU) [1]: -2 RU
BINDING AMOUNT (RU) [2]: 202 RU
BINDING AMOUNT (RU) [3]: 450 RU
BINDING AMOUNT (RU) [4]: -3.5 RU

B2: antibody with mPM1H-mIgG1-mF14 heavy chain (antibody)
heavy: B3 heavy with K231P, K235S
light: not shown
notes: T252Y/T256E/H433K; also called mPM1-mIgG1-mF14; copies: 2 + 2
BINDING AMOUNT (RU) [1]: -3.7 RU
BINDING AMOUNT (RU) [2]: 184 RU
BINDING AMOUNT (RU) [3]: 447 RU
BINDING AMOUNT (RU) [4]: -8 RU

B4: antibody with mPM1H-mIgG1-mF38 heavy chain (antibody)
heavy: B3 heavy with K231P, K235S, K429H, N430W
light: not shown
notes: T252Y/T256E/N434W; also called mPM1-mIgG1-mF38; copies: 2 + 2
BINDING AMOUNT (RU) [1]: -2 RU
BINDING AMOUNT (RU) [2]: 161 RU
BINDING AMOUNT (RU) [3]: 403 RU
BINDING AMOUNT (RU) [4]: -4.1 RU

B6: antibody with VH3-IgG1-F1009 heavy chain and L(WT)-CK light chain (antibody)
heavy: QVQLQESGPGLVKPSETLSLTCAVSGHSISHDHAWSWVRQPPGEGLEWIGFISYSGITNYNPSLQGRVTISRDNSKNTLYLQMNSLRAEDTAVYYCARSLARTTAMDYWGEGTLVTVSSASTKGPSVFPLAPSSKSTSGGTAALGCLVKDYFPEPVTVSWNSGALTSGVHTFPAVLQSSGLYSLSSVVTVPSSSLGTQTYICNVNHKPSNTKVDKKVEPKSCDKTHTCPPCPAPELRGGPKVFLFPPKPKDVLYISRTPEVTCVVVDVSHEDPEVKFNWYVDGVEVHNAKTKPREEQYNSTYRVVSVLQPLHADWLNGKEYKCKVSNKALPAPIEKTISKAKGQPREPQVYTLPPSRDELTKNQVSLTCLVKGFYPSDIAVEWESNGQPENNYKTTPPVLDSDGSFFLYSKLTVDKSRWQQGNVFSCSVMHEALHYHVTQKSLSLSP
light: not shown
notes: L235R/S239K/T250V/M252Y/T307Q/V308P/Q311A/N434Y/Y436V; copies: 2 + 2
Kd [5]: 12 nM
BINDING AMOUNT (RU) [6]: 0.6 RU
BINDING AMOUNT (RU) [7]: -1.5 RU
BINDING AMOUNT (RU) [8]: -12.9 RU
BINDING AMOUNT (RU) [9]: 7.2 RU
Kd [10]: 12 nM
BINDING AMOUNT (RU) [11]: 0.16 RU
BINDING AMOUNT (RU) [12]: 3.64 RU
BINDING AMOUNT (RU) [13]: 0.31 RU
BINDING AMOUNT (RU) [14]: -0.27 RU
BINDING AMOUNT (RU) [15]: -0.02 RU

B7: antibody with VH3-IgG1-F1327 heavy chain and L(WT)-CK light chain (antibody)
heavy: B6 heavy with L236A, R237A, K241S, N299A
light: not shown
notes: L234A/L235A/N297A on VH3-IgG1-F947; copies: 2 + 2
Kd [10]: 14 nM
BINDING AMOUNT (RU) [11]: 0.74 RU
BINDING AMOUNT (RU) [12]: -0.6 RU
BINDING AMOUNT (RU) [13]: 0.87 RU
BINDING AMOUNT (RU) [14]: -0.2 RU
BINDING AMOUNT (RU) [15]: -1.14 RU
